Target: T1, IL-15Rα constitutively expressed on Raji cells (UniProt Q13261 31-267, limits assumed)
T1 construct: whole, on cells; also called IL-15R-expressing Raji cells
Assay: flow cytometry, IL-15Rα-expressing Raji cells without IL-15, biotinylated 146B7, streptavidin-PE; stimulation index
Experimental: Raji cells are pre-incubated (20 minutes at 4° C.) with 10% human pooled AB serum (CLB, Amsterdam, Netherlands)in FACS buffer (PBS, 0.05%BSA, 0.02% NaNO₃). Raji cells (1-2*10⁵ cells/ml) were put in the wells, and 50 μl of unlabeled IL-15 was added in several concentrations (diluted in FACS buffer with 10% human AB serum). […] After washing twice in FACS buffer, 50 μl of streptavidin-phycoerythrin was added to each well (30 minutes at 4° C.). After washing twice in FACS buffer, cells were taken up in 200 μl of FACS buffer, and fluorescence intensity of at least 5000 cells per sample was determined after analysis by flow cytometry (FACS Calibur, Becton Dickinson) using CellQuest software.

T1 sequence (Q13261 31-267 limits assumed): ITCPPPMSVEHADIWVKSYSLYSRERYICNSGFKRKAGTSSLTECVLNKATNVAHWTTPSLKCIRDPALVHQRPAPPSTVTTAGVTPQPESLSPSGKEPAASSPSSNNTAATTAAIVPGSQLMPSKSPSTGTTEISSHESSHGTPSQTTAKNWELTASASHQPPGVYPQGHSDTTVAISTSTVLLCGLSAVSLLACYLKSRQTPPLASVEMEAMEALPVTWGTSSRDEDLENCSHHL

B1: human anti-IL-15 antibody 146B7 (antibody, human IgG1, V domains shown)
VH: EVQLVQSGAEVKKPGESLKISCKVSGYFFTTYWIGWVRQMPGKGLEYMGIIYPGDSDTRYSPSFQGQVTISADKSISTAYLQWSSLKASDTAMYYCARGGNWNCFDYWGQGTLVTVSS
VL: EIVLTQSPGTLSLSPGERATLSCRASQSVSSSYLAWYQQKPGQAPRLLIYGASRRATGIPDRFSGSGSGTDFTLTISRLEPEDFAVYYCQRYGSSHTFGQGTKLEISR
notes: also called MDX015
- binding result: no binding (tested: 10000 (unit not printed on the sheet))

From patent US20040071702A1 (Genmab, published 2004)
